Reference: patent US20130217027A1
Values belong to the substance of their own block, whether it stands above or below them.

Assays:
[1] = target: IS (1): peptide ARTK(me3)QTAR conjugated to a 125 bp DNA strand (H3K4me3-IS); test: ChIP of spiked conjugate, qPCR primer set H3K4me3_qPCR_short, well K2
[2] = target: IS (2): peptide ARTKQTAR without the methylation modification conjugated to a 125 bp DNA strand (Control-IS); test: ChIP of spiked conjugate, qPCR primer set H3_qPCR_long, well E2
[3] = target: IS (2): peptide ARTKQTAR without the methylation modification conjugated to a 125 bp DNA strand (Control-IS); test: ChIP of spiked conjugate, qPCR primer set H3_qPCR, well A2
[4] = target: IS (2): peptide ARTKQTAR without the methylation modification conjugated to a 125 bp DNA strand (Control-IS); test: ChIP qPCR primer set H3_qPCR_long; ratio of H3K4me3-antibody ChIP over H3K36me3-antibody ChIP
[5] = target: IS (2): peptide ARTKQTAR without the methylation modification conjugated to a 125 bp DNA strand (Control-IS); test: ChIP of spiked conjugate, qPCR primer set H3_qPCR_short, well I2
[6] = target: IS (1): peptide ARTK(me3)QTAR conjugated to a 125 bp DNA strand (H3K4me3-IS); test: ChIP of spiked conjugate, qPCR primer set H3K4me3_qPCR, well C1
[7] = target: IS (1): peptide ARTK(me3)QTAR conjugated to a 125 bp DNA strand (H3K4me3-IS); test: ChIP of spiked conjugate, qPCR primer set H3K4me3_qPCR_Vshort, well M1
[8] = target: IS (2): peptide ARTKQTAR without the methylation modification conjugated to a 125 bp DNA strand (Control-IS); test: ChIP qPCR primer set H3_qPCR_short; ratio of H3K4me3-antibody ChIP over H3K36me3-antibody ChIP
[9] = target: IS (1): peptide ARTK(me3)QTAR conjugated to a 125 bp DNA strand (H3K4me3-IS); test: ChIP of spiked conjugate, qPCR primer set H3K4me3_qPCR_short, well K1
[10] = target: IS (1): peptide ARTK(me3)QTAR conjugated to a 125 bp DNA strand (H3K4me3-IS); test: ChIP with 10 fg of internal standard spiked after sonication, qPCR
[11] = target: IS (1): peptide ARTK(me3)QTAR conjugated to a 125 bp DNA strand (H3K4me3-IS); test: ChIP qPCR primer set H3K4me3_qPCR_Vshort; enrichment of H3K4me3-IS normalised to Control-IS
[12] = target: IS (1): peptide ARTK(me3)QTAR conjugated to a 125 bp DNA strand (H3K4me3-IS); test: ChIP of spiked conjugate, qPCR primer set H3K4me3_qPCR, well C2
[13] = target: IS (2): peptide ARTKQTAR without the methylation modification conjugated to a 125 bp DNA strand (Control-IS); test: ChIP qPCR primer set H3_qPCR; ratio of H3K4me3-antibody ChIP over H3K36me3-antibody ChIP
[14] = target: IS (1): peptide ARTK(me3)QTAR conjugated to a 125 bp DNA strand (H3K4me3-IS); test: ChIP qPCR primer set H3K4me3_qPCR_short; enrichment of H3K4me3-IS normalised to Control-IS (H3_qPCR_short)
[15] = target: IS (2): peptide ARTKQTAR without the methylation modification conjugated to a 125 bp DNA strand (Control-IS); test: ChIP of spiked conjugate, qPCR primer set H3_qPCR_short, well I1
[16] = target: IS (2): peptide ARTKQTAR without the methylation modification conjugated to a 125 bp DNA strand (Control-IS); test: ChIP of spiked conjugate, qPCR primer set H3_qPCR, well A1
[17] = target: IS (1): peptide ARTK(me3)QTAR conjugated to a 125 bp DNA strand (H3K4me3-IS); test: ChIP of spiked conjugate, qPCR primer set H3K4me3_qPCR_long, well G2
[18] = target: IS (1): peptide ARTK(me3)QTAR conjugated to a 125 bp DNA strand (H3K4me3-IS); test: ChIP qPCR primer set H3K4me3_qPCR_long; enrichment of H3K4me3-IS normalised to Control-IS (H3_qPCR_long)
[19] = target: IS (1): peptide ARTK(me3)QTAR conjugated to a 125 bp DNA strand (H3K4me3-IS); test: ChIP qPCR primer set H3K4me3_qPCR; ratio of H3K4me3-antibody ChIP over H3K36me3-antibody ChIP
[20] = target: IS (1): peptide ARTK(me3)QTAR conjugated to a 125 bp DNA strand (H3K4me3-IS); test: ChIP with 100 fg of internal standard spiked after sonication, qPCR
[21] = target: IS (1): peptide ARTK(me3)QTAR conjugated to a 125 bp DNA strand (H3K4me3-IS); test: ChIP of spiked conjugate, qPCR primer set H3K4me3_qPCR_Vshort, well M2
[22] = target: IS (1): peptide ARTK(me3)QTAR conjugated to a 125 bp DNA strand (H3K4me3-IS); test: ChIP qPCR primer set H3K4me3_qPCR_long; ratio of H3K4me3-antibody ChIP over H3K36me3-antibody ChIP
[23] = target: IS (1): peptide ARTK(me3)QTAR conjugated to a 125 bp DNA strand (H3K4me3-IS); test: ChIP qPCR primer set H3K4me3_qPCR_Vshort; ratio of H3K4me3-antibody ChIP over H3K36me3-antibody ChIP
[24] = target: IS (1): peptide ARTK(me3)QTAR conjugated to a 125 bp DNA strand (H3K4me3-IS); test: ChIP qPCR primer set H3K4me3_qPCR_short; ratio of H3K4me3-antibody ChIP over H3K36me3-antibody ChIP
[25] = target: IS (1): peptide ARTK(me3)QTAR conjugated to a 125 bp DNA strand (H3K4me3-IS); test: ChIP qPCR primer set H3K4me3_qPCR; enrichment of H3K4me3-IS normalised to Control-IS (H3_qPCR)
[26] = target: IS (1): peptide ARTK(me3)QTAR conjugated to a 125 bp DNA strand (H3K4me3-IS); test: ChIP of spiked conjugate, qPCR primer set H3K4me3_qPCR_long, well G1
[27] = target: IS (2): peptide ARTKQTAR without the methylation modification conjugated to a 125 bp DNA strand (Control-IS); test: ChIP of spiked conjugate, qPCR primer set H3_qPCR_long, well E1
[28] = target: IS (1): peptide ARTK(me3)QTAR conjugated to a 125 bp DNA strand (H3K4me3-IS); test: ChIP of spiked conjugate, qPCR primer set H3K4me3_qPCR_Vshort, well M4
[29] = target: IS (2): peptide ARTKQTAR without the methylation modification conjugated to a 125 bp DNA strand (Control-IS); test: ChIP of spiked conjugate, qPCR primer set H3_qPCR, well A3
[30] = target: IS (2): peptide ARTKQTAR without the methylation modification conjugated to a 125 bp DNA strand (Control-IS); test: ChIP of spiked conjugate, qPCR primer set H3_qPCR_short, well I3
[31] = target: IS (1): peptide ARTK(me3)QTAR conjugated to a 125 bp DNA strand (H3K4me3-IS); test: ChIP of spiked conjugate, qPCR primer set H3K4me3_qPCR_short, well K3
[32] = target: IS (1): peptide ARTK(me3)QTAR conjugated to a 125 bp DNA strand (H3K4me3-IS); test: ChIP of spiked conjugate, qPCR primer set H3K4me3_qPCR_long, well G3
[33] = target: IS (2): peptide ARTKQTAR without the methylation modification conjugated to a 125 bp DNA strand (Control-IS); test: ChIP of spiked conjugate, qPCR primer set H3_qPCR_long, well E4
[34] = target: IS (2): peptide ARTKQTAR without the methylation modification conjugated to a 125 bp DNA strand (Control-IS); test: ChIP of spiked conjugate, qPCR primer set H3_qPCR_long, well E3
[35] = target: IS (1): peptide ARTK(me3)QTAR conjugated to a 125 bp DNA strand (H3K4me3-IS); test: ChIP of spiked conjugate, qPCR primer set H3K4me3_qPCR_short, well K4
[36] = target: IS (1): peptide ARTK(me3)QTAR conjugated to a 125 bp DNA strand (H3K4me3-IS); test: ChIP of spiked conjugate, qPCR primer set H3K4me3_qPCR, well C4
[37] = target: IS (1): peptide ARTK(me3)QTAR conjugated to a 125 bp DNA strand (H3K4me3-IS); test: ChIP of spiked conjugate, qPCR primer set H3K4me3_qPCR_long, well G4
[38] = target: IS (1): peptide ARTK(me3)QTAR conjugated to a 125 bp DNA strand (H3K4me3-IS); test: ChIP of spiked conjugate, qPCR primer set H3K4me3_qPCR_Vshort, well M3
[39] = target: IS (1): peptide ARTK(me3)QTAR conjugated to a 125 bp DNA strand (H3K4me3-IS); test: ChIP of spiked conjugate, qPCR primer set H3K4me3_qPCR, well C3
[40] = target: IS (2): peptide ARTKQTAR without the methylation modification conjugated to a 125 bp DNA strand (Control-IS); test: ChIP of spiked conjugate, qPCR primer set H3_qPCR, well A4
[41] = target: IS (2): peptide ARTKQTAR without the methylation modification conjugated to a 125 bp DNA strand (Control-IS); test: ChIP of spiked conjugate, qPCR primer set H3_qPCR_short, well I4

Cp (qPCR) [2]: 20.5
Cp (qPCR) [3]: 20.4
K4/K36 [4]: 0.862 fold
Cp (qPCR) [5]: 19.9
K4/K36 [8]: 0.871 fold
K4/K36 [13]: 1.16 fold
Cp (qPCR) [15]: 19.5
Cp (qPCR) [16]: 20.4
Cp (qPCR) [27]: 20.4
Substance: antibody specific for H3K4me3 (Millipore, catalogue Number: 07-473, rabbit, polyclonal)
Cp (qPCR) [1]: 14.9
Cp (qPCR) [6]: 14.7
Cp (qPCR) [7]: 14
Cp (qPCR) [9]: 14.2
qPCR cycle of enrichment [10]: 30 cycle
(K4/K36)^K4-ChIP/(K4/K36)^K36-ChIP [11]: 86.8 fold
Cp (qPCR) [12]: 15.2
(K4/K36)^K4-ChIP/(K4/K36)^K36-ChIP [14]: 52.7 fold
Cp (qPCR) [17]: 15.6
(K4/K36)^K4-ChIP/(K4/K36)^K36-ChIP [18]: 43.9 fold
K4/K36 [19]: 30.9 fold
qPCR cycle of enrichment [20]: 26 cycle
Cp (qPCR) [21]: 14.4
K4/K36 [22]: 37.8 fold
K4/K36 [23]: 75.6 fold
K4/K36 [24]: 45.9 fold
(K4/K36)^K4-ChIP/(K4/K36)^K36-ChIP [25]: 26.6 fold
Cp (qPCR) [26]: 15.2

Cp (qPCR) [29]: 20.3
Cp (qPCR) [30]: 19.1
Cp (qPCR) [33]: 19.9
Cp (qPCR) [34]: 20.6
Cp (qPCR) [40]: 21
Cp (qPCR) [41]: 19.9
Substance: non-relevant control antibody that should recognize H3K36me3 (Abcam, catalogue Number: ab9050, rabbit, polyclonal)
Cp (qPCR) [28]: 20.9
Cp (qPCR) [31]: 19.9
Cp (qPCR) [32]: 20.4
Cp (qPCR) [35]: 20.2
Cp (qPCR) [36]: 19.9
Cp (qPCR) [37]: 20.9
Cp (qPCR) [38]: 20.1
Cp (qPCR) [39]: 19.9
